Source: patent US10280205B2, “Method for treating cancer with an activated T lymphocyte that selectively recognizes a cancer cell consisting of specific peptide” (immatics biotechnologies GmbH, priority 2015, dated 2019)

Target: HLA-A*02:01 (Homo sapiens, UniProt P04439, D140Y/D185E/D98H/E176V/E277Q/G131W/G231S/I119V/I121R/I166T/I218V/L300P/L318F/N151K/N90K/P208A/P217A/Q86G/Q94H/R138H/R169H/T345S)
Test: MHC binding assay: UV-ligand exchange with beta2m ELISA (exchange yield)
Details: binding to HLA-A*02:01, β2m ELISA
Source text: Candidate peptides for T cell based therapies according to the present invention were further tested for their MHC binding capacity (affinity). The individual peptide-MHC complexes were produced by UV-ligand exchange, where a UV-sensitive peptide is cleaved upon UV-irradiation, and exchanged with the peptide of interest as analyzed. Only peptide candidates that can effectively bind and stabilize the peptide-receptive MHC molecules prevent dissociation of the MHC complexes. To determine the yield of the exchange reaction, an ELISA was performed based on the detection of the light chain (β2m) of stabilized MHC complexes. The assay was performed as generally described in Rodenko et al. (Rodenko et al., 2006).
96 well MAXISorp plates (NUNC) were coated over night with 2 ug/ml streptavidin in PBS at room temperature, washed 4× and blocked for 1 h at 37° C. in 2% BSA containing blocking buffer. […] Peptide-MHC monomers of the UV-exchange reaction were diluted 100 fold in blocking buffer. Samples were incubated for 1h at 37° C., washed four times, incubated with 2 ug/ml HRP conjugated anti-β2m for 1h at 37° C., washed again and detected with TMB solution that is stopped with […]. Absorption was measured at 450 nm. Candidate peptides that show a high exchange yield (preferably higher than 50%, most preferred higher than 75%) are generally preferred for a generation and production of antibodies or fragments thereof, and/or T cell receptors or fragments thereof, as they show sufficient avidity to the MHC molecules and prevent dissociation of the MHC complexes.

104 (STMEQNFLL; listed as Homo sapiens) [compound 104]
Peptide exchange (MHC class I binding score, peptide exchange yield): “++++” (≥75% = ++++)

106 (LLYDAVHIVSV; listed as Homo sapiens) [compound 106]
Peptide exchange (MHC class I binding score, peptide exchange yield): “+++” (≥50 = +++)

107 (FLQPVDDTQHL; listed as Homo sapiens) [compound 107]
Peptide exchange (MHC class I binding score, peptide exchange yield): “+++” (≥50 = +++)

108 (ALFPGVALLLA; listed as Homo sapiens) [compound 108]
Peptide exchange (MHC class I binding score, peptide exchange yield): “++++” (≥75% = ++++)

109 (IILSILEQA; listed as Homo sapiens) [compound 109]
Peptide exchange (MHC class I binding score, peptide exchange yield): “++++” (≥75% = ++++)

110 (FLSQVDFEL; listed as Homo sapiens) [compound 110]
Peptide exchange (MHC class I binding score, peptide exchange yield): “+++” (≥50 = +++)

111 (YVWGFYPAEV; listed as Homo sapiens) [compound 111]
Peptide exchange (MHC class I binding score, peptide exchange yield): “+++” (≥50 = +++)

114 (SLVGEPILQNV; listed as Homo sapiens) [compound 114]
Peptide exchange (MHC class I binding score, peptide exchange yield): “++” (≥20% = ++)

115 (AIAGAGILYGV; listed as Homo sapiens) [compound 115]
Peptide exchange (MHC class I binding score, peptide exchange yield): “++” (≥20% = ++)

116 (YHIDEEVGF; listed as Homo sapiens) [compound 116]
Peptide exchange (MHC class I binding score, peptide exchange yield): “+” (≥10% = +)

117 (ILPDGEDFLAV; listed as Homo sapiens) [compound 117]
Peptide exchange (MHC class I binding score, peptide exchange yield): “+++” (≥50 = +++)

119 (FLYIGDIVSL; listed as Homo sapiens) [compound 119]
Peptide exchange (MHC class I binding score, peptide exchange yield): “++++” (≥75% = ++++)

120 (ALLGIPLTLV; listed as Homo sapiens) [compound 120]
Peptide exchange (MHC class I binding score, peptide exchange yield): “+++” (≥50 = +++)

121 (GVVDPRAISVL; listed as Homo sapiens) [compound 121]
Peptide exchange (MHC class I binding score, peptide exchange yield): “++” (≥20% = ++)

122 (FLLAEDDIYL; listed as Homo sapiens) [compound 122]
Peptide exchange (MHC class I binding score, peptide exchange yield): “+++” (≥50 = +++)

123 (NLWDLTDASVV; listed as Homo sapiens) [compound 123]
Peptide exchange (MHC class I binding score, peptide exchange yield): “+++” (≥50 = +++)

124 (ALYETELADA; listed as Homo sapiens) [compound 124]
Peptide exchange (MHC class I binding score, peptide exchange yield): “++” (≥20% = ++)

125 (VQIHQVAQV; listed as Homo sapiens) [compound 125]
Peptide exchange (MHC class I binding score, peptide exchange yield): “+++” (≥50 = +++)

126 (VLAYFLPEA; listed as Homo sapiens) [compound 126]
Peptide exchange (MHC class I binding score, peptide exchange yield): “++++” (≥75% = ++++)

127 (KIGDEPPKV; listed as Homo sapiens) [compound 127]
Peptide exchange (MHC class I binding score, peptide exchange yield): “++” (≥20% = ++)

128 (YLFDDPLSAV; listed as Homo sapiens) [compound 128]
Peptide exchange (MHC class I binding score, peptide exchange yield): “++” (≥20% = ++)

129 (GLLDGGVDILL; listed as Homo sapiens) [compound 129]
Peptide exchange (MHC class I binding score, peptide exchange yield): “+++” (≥50 = +++)

130 (FLWNGEDSALL; listed as Homo sapiens) [compound 130]
Peptide exchange (MHC class I binding score, peptide exchange yield): “+++” (≥50 = +++)

131 (FVPPVTVFPSL; listed as Homo sapiens) [compound 131]
Peptide exchange (MHC class I binding score, peptide exchange yield): “++” (≥20% = ++)

132 (LLVEQPPLAGV; listed as Homo sapiens) [compound 132]
Peptide exchange (MHC class I binding score, peptide exchange yield): “+++” (≥50 = +++)

133 (KVLSNIHTV; listed as Homo sapiens) [compound 133]
Peptide exchange (MHC class I binding score, peptide exchange yield): “++” (≥20% = ++)

134 (YLQELIFSV; listed as Homo sapiens) [compound 134]
Peptide exchange (MHC class I binding score, peptide exchange yield): “+++” (≥50 = +++)

135 (ALSEVDFQL; listed as Homo sapiens) [compound 135]
Peptide exchange (MHC class I binding score, peptide exchange yield): “+++” (≥50 = +++)

136 (YLADPSNLFVV; listed as Homo sapiens) [compound 136]
Peptide exchange (MHC class I binding score, peptide exchange yield): “+++” (≥50 = +++)

137 (TLVLTLPTV; listed as Homo sapiens) [compound 137]
Peptide exchange (MHC class I binding score, peptide exchange yield): “++++” (≥75% = ++++)

138 (YQYPRAILSV; listed as Homo sapiens) [compound 138]
Peptide exchange (MHC class I binding score, peptide exchange yield): “+++” (≥50 = +++)

139 (SVMEVNSGIYRV; listed as Homo sapiens) [compound 139]
Peptide exchange (MHC class I binding score, peptide exchange yield): “+++” (≥50 = +++)

140 (YMDAPKAAL; listed as Homo sapiens) [compound 140]
Peptide exchange (MHC class I binding score, peptide exchange yield): “++” (≥20% = ++)

142 (FLFATPVFI; listed as Homo sapiens) [compound 142]
Peptide exchange (MHC class I binding score, peptide exchange yield): “+++” (≥50 = +++)

144 (YIMEPSIFNTL; listed as Homo sapiens) [compound 144]
Peptide exchange (MHC class I binding score, peptide exchange yield): “+++” (≥50 = +++)

145 (FLATSGTLAGI; listed as Homo sapiens) [compound 145]
Peptide exchange (MHC class I binding score, peptide exchange yield): “++” (≥20% = ++)

146 (SLATAGDGLIEL; listed as Homo sapiens) [compound 146]
Peptide exchange (MHC class I binding score, peptide exchange yield): “++” (≥20% = ++)

147 (SLLEAVSFL; listed as Homo sapiens) [compound 147]
Peptide exchange (MHC class I binding score, peptide exchange yield): “+++” (≥50 = +++)

148 (ALNPEIVSV; listed as Homo sapiens) [compound 148]
Peptide exchange (MHC class I binding score, peptide exchange yield): “++” (≥20% = ++)

149 (NLLELFVQL; listed as Homo sapiens) [compound 149]
Peptide exchange (MHC class I binding score, peptide exchange yield): “+++” (≥50 = +++)

151 (KILQQLVTL; listed as Homo sapiens) [compound 151]
Peptide exchange (MHC class I binding score, peptide exchange yield): “+++” (≥50 = +++)

152 (ILFEDIFDV; listed as Homo sapiens) [compound 152]
Peptide exchange (MHC class I binding score, peptide exchange yield): “+++” (≥50 = +++)

153 (FLIANVLYL; listed as Homo sapiens) [compound 153]
Peptide exchange (MHC class I binding score, peptide exchange yield): “+” (≥10% = +)

154 (ALDDGTPAL; listed as Homo sapiens) [compound 154]
Peptide exchange (MHC class I binding score, peptide exchange yield): “++” (≥20% = ++)

155 (RVANLHFPSV; listed as Homo sapiens) [compound 155]
Peptide exchange (MHC class I binding score, peptide exchange yield): “+++” (≥50 = +++)

157 (SLNDEVPEV; listed as Homo sapiens) [compound 157]
Peptide exchange (MHC class I binding score, peptide exchange yield): “++” (≥20% = ++)

158 (KLFDVDEDGYI; listed as Homo sapiens) [compound 158]
Peptide exchange (MHC class I binding score, peptide exchange yield): “+++” (≥50 = +++)

159 (GLVGNPLPSV; listed as Homo sapiens) [compound 159]
Peptide exchange (MHC class I binding score, peptide exchange yield): “++++” (≥75% = ++++)

160 (FLFDEEIEQI; listed as Homo sapiens) [compound 160]
Peptide exchange (MHC class I binding score, peptide exchange yield): “+++” (≥50 = +++)

161 (ALLEGVNTV; listed as Homo sapiens) [compound 161]
Peptide exchange (MHC class I binding score, peptide exchange yield): “+++” (≥50 = +++)

162 (YQQAQVPSV; listed as Homo sapiens) [compound 162]
Peptide exchange (MHC class I binding score, peptide exchange yield): “+++” (≥50 = +++)

163 (ALDEMGDLLQL; listed as Homo sapiens) [compound 163]
Peptide exchange (MHC class I binding score, peptide exchange yield): “+++” (≥50 = +++)

164 (ALLPQPKNLTV; listed as Homo sapiens) [compound 164]
Peptide exchange (MHC class I binding score, peptide exchange yield): “+++” (≥50 = +++)

165 (SLLDEIRAV; listed as Homo sapiens) [compound 165]
Peptide exchange (MHC class I binding score, peptide exchange yield): “+++” (≥50 = +++)

167 (KVLEVTEEFGV; listed as Homo sapiens) [compound 167]
Peptide exchange (MHC class I binding score, peptide exchange yield): “+++” (≥50 = +++)

168 (KILDADIQL; listed as Homo sapiens) [compound 168]
Peptide exchange (MHC class I binding score, peptide exchange yield): “++++” (≥75% = ++++)

169 (NLPEYLPFV; listed as Homo sapiens) [compound 169]
Peptide exchange (MHC class I binding score, peptide exchange yield): “+++” (≥50 = +++)

170 (RLQETLSAA; listed as Homo sapiens) [compound 170]
Peptide exchange (MHC class I binding score, peptide exchange yield): “+++” (≥50 = +++)

171 (LLLPLQILL; listed as Homo sapiens) [compound 171]
Peptide exchange (MHC class I binding score, peptide exchange yield): “+++” (≥50 = +++)

172 (VLYSYTIITV; listed as Homo sapiens) [compound 172]
Peptide exchange (MHC class I binding score, peptide exchange yield): “++” (≥20% = ++)

173 (LLDSASAGLYL; listed as Homo sapiens) [compound 173]
Peptide exchange (MHC class I binding score, peptide exchange yield): “+++” (≥50 = +++)
